Results on 2 substances are retold here after patent US20050026219.

The subject of data set [1] is T1, Raytide EL (protein-tyrosine-kinase substrate, MW 2476 Dalton, Messrs. Calbiochem).
T1 sequence: KKKGPWLEEEEEAYGWLDF

Data set [2] concerns oligopeptide Ac-Ile-Tyr-Gly-Glu-Phe-NH2 "M-2165" (Messrs. Bachem, MW 668.8).

In the case of “Epidermal Growth Factor Receptor Kinase (EGF-RK) isolated from human A 431 carcinoma cells (Messrs. Sigma)”, in data set [1], the “phosphorylation of the substrate, detected by RIfS through the fall of free anti-phosphotyrosine antibody” value is given as “The phosphorylation with the alternative substrate (SEQ ID NO.:3) Raytide™ EL is clearly detectable”.

Consider “p60c-src-kinase isolated from human cells (Messrs. Calbiochem)”, for which, in data set [2], the “phosphorylation of the substrate, detected by RIfS (AMD sensor) through the fall of free anti-phosphotyrosine antibody” value was “The phosphorylation is very clearly detectable” and the “phosphorylation of the substrate, detected by RIfS (diamino-PEG 2000 sensor) through the fall of free anti-phosphotyrosine antibody” value was “The phosphorylation is very clearly detectable”.
